# According to paper PMC11507878:
# Target: GST-fused Par-6 CRIB-PDZ (UniProt O97111)
# Test: pull-down
substance,measurement,value
Par complex ΔCRIB-PDZ (full length aPKC with the Par-6 PB1 domain) (from UniProt A1Z9X0 1-606),fold increase of binding with Par-3 PDZ2 against without,> 20 fold
